# Columns and labels:
# [1] = biological target: Skeletal muscle actin (rabbit) (UniProt P68135)
# [2] = biological target: Arp2/3 complex purified from sheep brain (sheep)
# [3] = biological target: Arp2/3 complex purified from sheep brain (sheep); test: TIRF microscopy of single actin filaments in microfluidics; branch dissociation rate against GMF concentration (up to 1500 nM), 0.3 μM G-actin, branches aged 30 min (ADP-Arp2/3 complex), average 1 pN pulling force; Michaelis-Menten fit, rapid equilibrium between GMF and the branch junction assumed; apparent dissociation constant; 25°C, pH 7.0, 50 mM KCl
Molecule,branch renucleation ratio of branches made with budding yeast Arp2/3 complex on mammalian actin [1] [%],branch renucleation ratio against GMF concentration (0.3 and 0.6 μM actin): GMF concentration of the half-maximum effect; with 25 nM GMF and 0.6 μM actin the ratio was reduced more than threefold [2] [nM],Kd [3] [nM]
Arp2/3 complex from Saccharomyces cerevisiae (from UniProt P32381 1-391; P47117 1-449),< 10,,
drosophila GMF (glia maturation factor) (natural protein) MSDNQICDISNEVLEELKKFRFSKSKNNAALILKVDREKQTVVLDEFIDDISVDELQDTLPGHQPRYVIYTYKMVHDDQRISYPMCFIFYTPRDSQIELQMMYACTKSALQREVDLTRVYEIRELDELTEEWLKAKLK,,< 25,260
